The results in this text go back to PMC7111943.

The target in this series is T1, GST-N (TGEV nucleocapsid protein) (Transmissible gastroenteritis …, UniProt P04134 1-382).
T1 sequence: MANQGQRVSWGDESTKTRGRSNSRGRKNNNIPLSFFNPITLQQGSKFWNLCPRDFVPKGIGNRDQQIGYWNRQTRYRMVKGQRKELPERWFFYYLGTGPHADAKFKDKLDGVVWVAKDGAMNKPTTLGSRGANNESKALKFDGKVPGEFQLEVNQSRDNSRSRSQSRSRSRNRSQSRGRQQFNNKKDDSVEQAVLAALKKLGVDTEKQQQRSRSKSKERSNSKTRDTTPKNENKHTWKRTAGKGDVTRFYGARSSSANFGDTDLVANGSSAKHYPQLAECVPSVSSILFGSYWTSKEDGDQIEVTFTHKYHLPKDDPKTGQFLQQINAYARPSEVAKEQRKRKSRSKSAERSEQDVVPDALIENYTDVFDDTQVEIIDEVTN
The series is described as follows: EMSA.

B1: TRS-L (ssRNA)
RNA: UCGAACUAAACGAAAU
As to B1, the binding result is “binds”.
